In the assay the target is T1, TLR10 (Homo sapiens, UniProt Q9BXR5).
T1 sequence (Q9BXR5 20-576): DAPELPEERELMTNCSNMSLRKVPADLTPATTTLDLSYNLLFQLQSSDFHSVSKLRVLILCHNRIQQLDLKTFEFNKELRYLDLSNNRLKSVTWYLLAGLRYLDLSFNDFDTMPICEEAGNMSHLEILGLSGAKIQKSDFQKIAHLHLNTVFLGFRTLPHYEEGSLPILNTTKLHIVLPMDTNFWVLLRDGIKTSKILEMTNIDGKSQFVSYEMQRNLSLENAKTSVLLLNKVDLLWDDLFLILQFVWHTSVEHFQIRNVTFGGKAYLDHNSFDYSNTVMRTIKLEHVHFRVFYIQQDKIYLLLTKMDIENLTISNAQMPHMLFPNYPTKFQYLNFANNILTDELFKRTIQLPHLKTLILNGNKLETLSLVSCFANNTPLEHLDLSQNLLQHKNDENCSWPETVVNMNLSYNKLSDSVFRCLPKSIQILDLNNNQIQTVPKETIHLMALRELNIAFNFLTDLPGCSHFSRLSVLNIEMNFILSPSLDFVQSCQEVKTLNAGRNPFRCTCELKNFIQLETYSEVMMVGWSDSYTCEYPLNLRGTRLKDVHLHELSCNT
The assay can be described thus: mRNA display affinity selection against TLR10, NGS abundance. Type of assay: binding. Details: Chimera protein (extracellular domain, amino acid 20-576;); Fc (chimera); purchased R&D system #6619-TR-050. Particulars: Top100 selection hits, NGS.

Take SFMFFSQRKLAF: for the setting “TLR10 selection pulldown (+)”, the Library fraction is listed as 0.00034 and the Raw reads was 33.
Regarding SFTFALQRRIAY, where the note is “TLR10 selection pulldown (-)”, the Library fraction worked out at 0.0006 and the Raw reads was found to be 71.
For SHYFAFQKKLAF, in that order: 0.00125 and 149.
The matching figures for SICFASQRLLAF: 0.00149 and 178.
For SICFPLQHKCAY, in that order: 0.00144 and 172.
Where the note is “TLR10 selection pulldown (-)”, SIEFRRMRAIAY had a Library fraction of 0.00067 and a Raw reads of 80.
As to SIEGMHVVIV, under “TLR10 selection pulldown (+)”, the Library fraction is listed as 0.00022 and the Raw reads worked out at 21.
For the setting “TLR10 selection pulldown (+)”, SIETTNMVLL yielded a Library fraction of 0.00031 and a Raw reads of 30.
The matching figures for SIKFVFQGKLAI: 0.00046 and 45.
The matching figures for SILFPHQQKLLF: 0.00044 and 43.
The matching figures for SILFSIQNKLVL: 0.00021 and 20.
SIMFALQQKLLF: where the note is “TLR10 selection pulldown (+)”, the Library fraction stood at 0.004 and the Raw reads is 389. Besides, under “TLR10 selection pulldown (-)”, the Library fraction is on record as 0.00189 and the Raw reads is listed as 226.
In the case of SIMIYCNQKIRG, for the setting “TLR10 selection pulldown (+)”, the Library fraction is given as 0.00114 and the Raw reads was 111.
For SIQFKVLQKLAF, in that order: 0.00018 and 18.
With SITFPMQRHIAF, for the setting “TLR10 selection pulldown (-)”, the Library fraction was 0.00112 and the Raw reads was 133.
In the case of SITFQTLNKIAY, under “TLR10 selection pulldown (-)”, the Library fraction came to 0.006 and the Raw reads is given as 714.
For the setting “TLR10 selection pulldown (+)”, SIVFHLTNKMAF registered a Library fraction of 0.004 and a Raw reads of 391. For the setting “TLR10 selection pulldown (-)”, this sequence had a Library fraction of 0.004 and a Raw reads of 462.
With SIWFPLQRKIAA, the Library fraction reads like this: (TLR10 selection pulldown (+)) 0.00746; (TLR10 selection pulldown (-)) 0.026. The Raw reads is, setting by setting: (TLR10 selection pulldown (+)) 727; (TLR10 selection pulldown (-)) 3115.
Under “TLR10 selection pulldown (+)”, SIYFEKAEKVAF showed a Library fraction of 0.00071 and a Raw reads of 69.
As for SKIIIRGQGIRG, under “TLR10 selection pulldown (-)”, the Library fraction is 0.00238 and the Raw reads came to 284.
For SKIIWSNQAIRG, in that order: 0.007 and 798.
As to SKQVYHKQTIVG, for the setting “TLR10 selection pulldown (+)”, the Library fraction is 0.00063 and the Raw reads is on record as 61.
For the setting “TLR10 selection pulldown (+)”, SLEFPHLVIH had a Library fraction of 0.00028 and a Raw reads of 27.
SLELKHIVFH: where the note is “TLR10 selection pulldown (-)”, the Library fraction stood at 0.00222 and the Raw reads was 265.
The matching figures for SLELSRVNVVIH: 0.00163 and 194.
Turning to SLETNSVVWI, for the setting “TLR10 selection pulldown (+)”, the Library fraction stood at 0.00021 and the Raw reads is 20.
For SLETSHLVIY, in that order: 0.00035 and 34.
In the case of SMCVWARQKIVG, under “TLR10 selection pulldown (+)”, the Library fraction came out at 0.00071 and the Raw reads came to 69. Where the note is “TLR10 selection pulldown (-)”, this sequence gave a Library fraction of 0.00054 and a Raw reads of 64.
Where the note is “TLR10 selection pulldown (+)”, SMEFVKIPLVIH gave a Library fraction of 0.00041 and a Raw reads of 40.
Regarding SMHYRFLCKIAF, for the setting “TLR10 selection pulldown (-)”, the Library fraction stood at 0.001 and the Raw reads was 117.
The matching figures for SMLFRLANKIAF: 0.040 and 4812.
For the setting “TLR10 selection pulldown (+)”, SMLLPMQRVVMF came in with a Library fraction of 0.00018 and a Raw reads of 18.
Under “TLR10 selection pulldown (+)”, SMLVWKGQSIRG showed a Library fraction of 0.004 and a Raw reads of 408. Besides, under “TLR10 selection pulldown (-)”, the Library fraction was 0.002 and the Raw reads turned out to be 248.
For the setting “TLR10 selection pulldown (-)”, SMYFESLNKLAV returned a Library fraction of 0.00044 and a Raw reads of 52.
As for SNIVWCGQGIIG, for the setting “TLR10 selection pulldown (+)”, the Library fraction is 0.168 and the Raw reads stood at 16419. Besides, under “TLR10 selection pulldown (-)”, the Library fraction stood at 0.077 and the Raw reads came to 9156.
The matching figures for SNSNRYGGLITS: 0.045, 4431, 0.005 and 582.
Where the note is “TLR10 selection pulldown (+)”, SNVIYARQHIIG came in with a Library fraction of 0.0005 and a Raw reads of 49.
For SPIHFRSVL, in that order: 0.00047 and 46.
Where the note is “TLR10 selection pulldown (-)”, SQFNHAMGWYVN displayed a Library fraction of 0.00131 and a Raw reads of 156.
The matching figures for SRIIYMNQSIRG: 0.00043 and 51.
For the setting “TLR10 selection pulldown (+)”, SRTIYRCQSIRG showed a Library fraction of 0.008 and a Raw reads of 777. For the setting “TLR10 selection pulldown (-)”, this sequence had a Library fraction of 0.00125 and a Raw reads of 149.
For SRTNRFGGHMAS, in that order: 0.168, 16419, 0.008 and 995.
For SSPNRYGGNVNT, in that order: 0.00122, 119, 0.00077 and 92.
Under “TLR10 selection pulldown (-)”, SSTVWKLQTICG yielded a Library fraction of 0.00046 and a Raw reads of 55.
Turning to SSYVYHKQRIRG, for the setting “TLR10 selection pulldown (+)”, the Library fraction stood at 0.00022 and the Raw reads is 21.
With STHIYSKQGIRG, the Library fraction is 0.004 (TLR10 selection pulldown (+)) and 0.001 (TLR10 selection pulldown (-)). The Raw reads was found to be 409 (TLR10 selection pulldown (+)) and 116 (TLR10 selection pulldown (-)).
Under “TLR10 selection pulldown (+)”, STIVFKHQQISG showed a Library fraction of 0.00018 and a Raw reads of 18.
Regarding STIVFTFQCIKG, where the note is “TLR10 selection pulldown (+)”, the Library fraction came out at 0.012 and the Raw reads was 1142. In addition, where the note is “TLR10 selection pulldown (-)”, the Library fraction came out at 0.008 and the Raw reads is reported as 919.
As to STKNQYGGWSPA, for the setting “TLR10 selection pulldown (+)”, the Library fraction was determined as 0.00034 and the Raw reads came to 33.
The matching figures for STLFFMFQGIRG: 0.00019 and 19.
The matching figures for STLIYKLQCILG: 0.0008 and 78.
On to SVCVYQHQGIRG, for which, where the note is “TLR10 selection pulldown (+)”, the Library fraction worked out at 0.035 and the Raw reads was found to be 3411. Under “TLR10 selection pulldown (-)”, this sequence returned a Library fraction of 0.010 and a Raw reads of 1149.
Where the note is “TLR10 selection pulldown (-)”, SVDFGQVVIH yielded a Library fraction of 0.00054 and a Raw reads of 65.
On to SVEVWVNQKIRG, for which, for the setting “TLR10 selection pulldown (-)”, the Library fraction was 0.003 and the Raw reads came to 343.
For the sequence SVIFNLLRQVAY, under “TLR10 selection pulldown (+)”, the Library fraction is recorded as 0.00017 and the Raw reads is reported as 17.
The matching figures for SVMNVFGGNAAT: 0.00029 and 28.
Consider SVPFPLQRKLVF, for which, under “TLR10 selection pulldown (+)”, the Library fraction amounted to 0.005 and the Raw reads was 482. For the same sequence, under “TLR10 selection pulldown (-)”, the Library fraction was 0.00118 and the Raw reads is 141.
For the setting “TLR10 selection pulldown (+)”, SVSFPLQRKLVF displayed a Library fraction of 0.00065 and a Raw reads of 63.
On to SVVVWHAQPIMG, for which, under “TLR10 selection pulldown (-)”, the Library fraction is 0.006 and the Raw reads is 714.
For TCFSHYLIM, in that order: 0.002 and 237.
TFLGGNVRAWI: under “TLR10 selection pulldown (-)”, the Library fraction was 0.00088 and the Raw reads is 105.
For TIELTHAYLH, in that order: 0.00054 and 64.
Consider TIKFPRLQMLAI, for which, for the setting “TLR10 selection pulldown (+)”, the Library fraction is recorded as 0.00066 and the Raw reads is on record as 64.
Where the note is “TLR10 selection pulldown (-)”, TILFPLQRRLVV yielded a Library fraction of 0.0018 and a Raw reads of 215.
Where the note is “TLR10 selection pulldown (+)”, TILFSLQNVRAF yielded a Library fraction of 0.00137 and a Raw reads of 134. For the setting “TLR10 selection pulldown (-)”, the Library fraction is recorded as 0.0033 and the Raw reads worked out at 394.
On to TIRFTNQNKIAF, for which the Library fraction by setting is: (TLR10 selection pulldown (+)) 0.038; (TLR10 selection pulldown (-)) 0.095. Moreover, the Raw reads is recorded as 3740 (TLR10 selection pulldown (+)) and 11292 (TLR10 selection pulldown (-)).
With TIYFKLQKAVAL, under “TLR10 selection pulldown (+)”, the Library fraction worked out at 0.00055 and the Raw reads came to 54.
Take TLELKAIVFH: under “TLR10 selection pulldown (-)”, the Library fraction stood at 0.00044 and the Raw reads is 52.
Take TLELQSVVLH: under “TLR10 selection pulldown (+)”, the Library fraction worked out at 0.00033 and the Raw reads amounted to 32.
In turn, TLHFRRQNKIAY returned a Library fraction (TLR10 selection pulldown (+)) of 0.020 and a Library fraction (TLR10 selection pulldown (-)) of 0.011. Moreover, the Raw reads (TLR10 selection pulldown (+)) amounted to 1927 and the Raw reads (TLR10 selection pulldown (-)) is 1314.
TMCFTFSKMVAF: under “TLR10 selection pulldown (-)”, the Library fraction is listed as 0.00058 and the Raw reads is 69.
